The source of these data is paper PMC3620106, “One-Step Chromatographic Purification of Helicobacter pylori Neutrophil-Activating Protein Expressed in Bacillus subtilis” (PLoS ONE, 2013).

This data set concerns the molecule itself. Kind of data set: AUC; sedimentation velocity, HP-NAP at 0.3 mg/ml in D-PBS, pH 7.2, 41,000 rpm, 20°C, SEDFIT c(s); monomer mass by LC-MS.

B1: Helicobacter pylori neutrophil-activating protein (HP-NAP), recombinant, expressed in Bacillus subtilis (natural protein)
chain: MKTFEILKHLQADAIVLFMKVHNFHWNVKGTDFFNVHKATEEIYEEFADMFDDLAERIVQLGHHPLVTLSEAIKLTRVKEETKTSFHSKDIFKEILEDYKYLEKEFKELSNTAEKEGDKVTVTYADDQLAKLQKSIWMLQAHLA
notes: monomer 16.934 kDa by LC-MS (theoretical 16.933 kDa); napA was cut from pET28a-His-NAP with NdeI and XhoI and cloned into pRPA; The measured monomer mass (16.934 kDa) fits the theoretical mass of the whole untagged protein (16.933 kDa); also called recombinant HP-NAP; purified HP-NAP; source: B. subtilis DB104 harboring pRPA-NAP; copies: 12
For B1, the “stoichiometry N” value was found to be 12.
